Test [1] relates to SiHa cervical cancer cells. Conditions: Zhang et al. 2004; cited from earlier work.
For another test, the system named is U937 cells. Description: colony forming ability (CFA), DNR. It counts as cell-based. On the procedure: Analysis for colony forming ability (CFA): U937 cells (ATCC), in the logarithmic phase, were maintained in RPMI 1640 medium supplemented with 20% FBS and 0.4% methyl cellulose (Sigma) by the semi-solid colony culture method and were adjusted to a density of 5×10^3 cells/mL. The cells were divided into control groups and test groups, and each group was assayed in triple wells. U937 cells in the control groups were treated with DNR alone, with the final concentrations of 0 ng/mL and 0.5 ng/mL. U937 cells in the test group were treated with DNR of various concentrations combined with PDCD5 of various concentrations, while the final concentrations of PDCD5 were 0 μg/mL, 0.625 μg/mL, 1.25 μg/mL, and 2.5 μg/mL, respectively. After incubation for 14 days in a 37° C., 5% CO2 and saturatedly humidified incubator, a colony with more than 30 cells was counted by an inverted microscope in order to analyze colony forming ability of each group. The colony forming ability was shown as the ratio of average number of colony in each group versus that of the untreated control group in which the final concentrations of DNR and PDCD5 were 0 μg/mL.

Test [2] has as its system K562 cells. Description: Annexin-V apoptosis by flow cytometry, Ara-C. It counts as cell-based. On the procedure: Methods: Cell staining with FITC/Annexin-V and cell apoptosis detection in vitro by flow cytometry: K562 cells (ATCC) were maintained in RPMI 1640 (Life Technologies, USA) supplemented with 10% FBS (Hyclone, USA), and were plated in 24-well culture dishes to a density of 2×10^5 cells per well. rhPDCD5 protein was added in each well with a final concentration of 15 μg/mL, 30 μg/mL and 60 μg/mL, respectively. Chemotherapeutic drug Ara-C (Pharmacia, Italia) was then added with a final concentration of 0.1 μg/mL and RPMI 1640 medium supplemented with 10% FBS was added to bring the culture system to 1 mL. After incubation for 48 hours, the cells were stained with Annexin-V/PI (Biosea) and then were analyzed for apoptosis by flow cytometry.

Another test deals with HL-60 cells. Description: cell apoptosis assay, As2O3. It counts as cell-based. On the procedure:
Methods: Cell apoptosis assay: HL-60 cells (ATCC) of logarithmic growth phase were cultured and the density of cells was 2×10^5/mL. The cells were divided into control and test groups. In the control groups, the HL60 cells were treated only with As2O3 (Harbin Yida Pharmaceutical Co., Ltd.), and the final concentration of As2O3 were 0 μg/mL, 0.25 μg/mL and 0.5 μg/mL, respectively. In the test groups, the HL60 cells were treated with As2O3 in the various concentrations combined with PDCD5 in various concentrations, the final concentrations of PDCD5 being 0 μg/mL, 5 μg/mL, 10 μg/mL and 20 μg/mL, respectively. The cells were incubated in a 37° C., 5% CO2 and saturatedly humidified incubator for 24 h, and subsequently were stained with Annexin-V/PI and detected for apoptosis by flow cytometer.

The next test has as its system Raji cells. Description: FITC/Annexin-V apoptosis by flow cytometry, DNR. The format is cell-based. The protocol:
Methods: Raji cells were cultured in RPMI 1640 medium (Life Technologies, USA) supplemented with 10% Fetal Bovine Serum (FBS, Hyclone, USA). The cells were seeded in 24-well plates with 2×10^5 cells per well. rhPDCD5 was added to each well and the final concentrations were 0 μg/mL, 2.5 μg/mL and 5 μg/mL, respectively. Subsequently, DNR was added and the final concentrations were 0 μg/mL and 0.05 μg/mL, and RPMI 1640 medium supplemented with 10% FBS was added to ensure the system was brought to 1 mL. After 24 h incubation, the cells were stained with FITC/Annexin-V (Beijing Biosea Biotechnology Co., Ltd.) and the apoptosis was detected by flow cytometry.

For another test, the system named is 7721 liver cancer cells. Conditions: Li et al. 2000; cited from earlier work.
The test system of test [3] is HeLa, MGC-803, HT-29, A549, PC-3, U937, HL-60, Jurkat T lymphocytes, K562, Raji, TF-1 cells. Description: entry of exogenous PDCD5 into cell types. The format is cell-based.
For test [4], the system named is K562 cells. Description: FITC/Annexin-V apoptosis by flow cytometry, IDR. It counts as cell-based. On the procedure: Methods: Cell staining with FITC/Annexin-V and cell apoptosis in vitro detection by flow cytometry: K562 cells (ATCC) were maintained in RPMI 1640 (Life Technologies, USA) supplemented with 10% FBS (Hyclone, USA), and were plated in 24-well culture dishes to a density of 2×10^5 cells/mL. rhPDCD5 protein was added with a final concentration of 7.5 μg/mL, 15 μg/mL and 30 μg/mL, respectively, in each well. Chemotherapeutic drug IDR was then added with a final concentration of 56 ng/mL and RPMI 1640 with 10% FBS was added to make the system to 1 mL. After 24 hours of co-culture, the cells were stained with FITC/Annexin-V (Baosai company) and apoptosis was detected by flow cytometry.

B1: rhPDCD5: recombinant human programmed cell death 5 protein (SEQ ID NO:1) expressed in E. coli and purified (protein, listed as Homo sapiens)
chain: MADEELEALRRQRLAELQAKHGDPGDAAQQEAKHREAEMRNSILAQVLDQSARARLSNLALVKPEKTKAVENYLIQMARYGQLSEKVSEQGLIEILKKVSQQTEKTTTVKFNRRKVMDSDEDDDY
Regarding B1, in test [1], the “effect on apoptosis induced by IFNγ in vitro” value is “had a sensitized effect on apoptosis of SiHa cervical cancer cells”. In addition, the “enhancement of inhibition of CFA by DNR” value in the test with U937 cells is given as “can significantly enhance the inhibition of CFA by DNR”. Besides, the “effect on the CFA of U937 cells” value in the test on U937 cells (rhPDCD5 alone) is reported as “did not have significant effect”. Moreover, in the test with K562 cells [2], the “promotion of apoptosis induced by Ara-C” value was “could significantly promote apoptosis”. Further, the “enhancement of induced apoptosis” value with HL-60 cells is given as “can significantly enhance As2O3-induced apoptosis”. The “enhancement of DNR-induced apoptosis” value in the test with Raji cells was “can significantly enhance DNR-induced apoptosis”. Further, in the test on 7721 liver cancer cells, the “effect on apoptosis induced by hydroxy camptothecin (HCPT)” value is given as “could accelerate apoptosis of 7721 liver cancer cells”. Moreover, the “specificity for cell types while entering into cells” value in test [3] is recorded as “shows no specificity for cell types”. The “promotion of apoptosis induced by IDR” value in the test on K562 cells [4] is recorded as “could significantly promote apoptosis”.

The values are drawn from patent US20110009342A1, “USES OF PDCD5 POLYPEPTIDE FOR TUMOR CHEMOTHERAPY AND ORGAN PROTECTION” (priority 2008, published 2011).
